Results taken from patent publication US20140213531A1 (POLYPHOR, published 2014).
Bridges are numbered along the chain shown (N, C = ends). [ ]: non-standard residue; d: D form. Nle = CCCC[C@H](N)C(=O)O

T1: CathepsinG, from human neutrophils (human, UniProt P08311 21-244)
T1 sequence (looked up): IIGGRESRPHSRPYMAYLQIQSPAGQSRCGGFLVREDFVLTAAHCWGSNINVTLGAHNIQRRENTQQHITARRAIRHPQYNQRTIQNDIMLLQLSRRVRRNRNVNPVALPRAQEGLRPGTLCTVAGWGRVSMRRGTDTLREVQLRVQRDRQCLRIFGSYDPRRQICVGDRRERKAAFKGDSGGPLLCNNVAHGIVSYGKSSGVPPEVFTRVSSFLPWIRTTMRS

T2: Elastase from human neutrophils (human, UniProt P08246 30-247, limits assumed)
T2 sequence (looked up): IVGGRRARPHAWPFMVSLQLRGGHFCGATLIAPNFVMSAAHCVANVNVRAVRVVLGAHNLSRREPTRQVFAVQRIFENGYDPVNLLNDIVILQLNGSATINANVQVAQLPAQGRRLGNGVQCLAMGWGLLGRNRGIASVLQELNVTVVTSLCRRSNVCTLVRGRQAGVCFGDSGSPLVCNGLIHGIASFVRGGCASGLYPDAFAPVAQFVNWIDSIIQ

T3: Chymase, from human skin (human, UniProt P23946 22-247)
T3 sequence (looked up): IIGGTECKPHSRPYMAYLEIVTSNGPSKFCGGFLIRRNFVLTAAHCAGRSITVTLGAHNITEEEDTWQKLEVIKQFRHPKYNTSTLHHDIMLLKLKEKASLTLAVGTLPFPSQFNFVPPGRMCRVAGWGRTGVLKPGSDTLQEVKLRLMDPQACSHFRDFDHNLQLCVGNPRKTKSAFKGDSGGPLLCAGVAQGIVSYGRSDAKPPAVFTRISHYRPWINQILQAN

B1: Example 54 (peptide)
peptide: FCTKSDPPXCS
HELM: PEPTIDE1{F.C.T.K.S.D.P.P.[Cha].C.S.[dP].P}$PEPTIDE1,PEPTIDE1,2:R3-10:R3|PEPTIDE1,PEPTIDE1,1:R1-13:R2$$$V2.0
SMILES: C[C@@H](O)[C@@H]1NC(=O)[C@@H]2CSSC[C@H](NC(=O)[C@H](CC3CCCCC3)NC(=O)[C@@H]3CCCN3C(=O)[C@@H]3CCCN3C(=O)[C@H](CC(=O)O)NC(=O)[C@H](CO)NC(=O)[C@H](CCCCN)NC1=O)C(=O)N[C@@H](CO)C(=O)N1CCC[C@@H]1C(=O)N1CCC[C@H]1C(=O)N[C@@H](Cc1ccccc1)C(=O)N2
B2: Example 59 (peptide)
peptide: ICTXSDPPICR
HELM: PEPTIDE1{I.C.T.[Nle].S.D.P.P.I.C.R.[dP].P}$PEPTIDE1,PEPTIDE1,2:R3-10:R3|PEPTIDE1,PEPTIDE1,1:R1-13:R2$$$V2.0
SMILES: CCCC[C@@H]1NC(=O)[C@H]([C@@H](C)O)NC(=O)[C@@H]2CSSC[C@H](NC(=O)[C@H]([C@@H](C)CC)NC(=O)[C@@H]3CCCN3C(=O)[C@@H]3CCCN3C(=O)[C@H](CC(=O)O)NC(=O)[C@H](CO)NC1=O)C(=O)N[C@@H](CCCNC(=N)N)C(=O)N1CCC[C@@H]1C(=O)N1CCC[C@H]1C(=O)N[C@@H]([C@@H](C)CC)C(=O)N2
B3: Example 65 (peptide)
peptide: XCTKSDPPYCY
HELM: PEPTIDE1{[O=C([C@@H](N[*:1])C1CCCCC1)[*:2]].C.T.K.S.D.P.P.Y.C.Y.[dP].P}$PEPTIDE1,PEPTIDE1,2:R3-10:R3|PEPTIDE1,PEPTIDE1,1:R1-13:R2$$$V2.0
SMILES: C[C@@H](O)[C@@H]1NC(=O)[C@@H]2CSSC[C@H](NC(=O)[C@H](Cc3ccc(O)cc3)NC(=O)[C@@H]3CCCN3C(=O)[C@@H]3CCCN3C(=O)[C@H](CC(=O)O)NC(=O)[C@H](CO)NC(=O)[C@H](CCCCN)NC1=O)C(=O)N[C@@H](Cc1ccc(O)cc1)C(=O)N1CCC[C@@H]1C(=O)N1CCC[C@H]1C(=O)N[C@@H](C1CCCCC1)C(=O)N2
B4: Example 17 (peptide)
peptide: ICTKSDPPQCR
HELM: PEPTIDE1{I.C.T.K.S.D.P.P.Q.C.R.[dP].P}$PEPTIDE1,PEPTIDE1,2:R3-10:R3|PEPTIDE1,PEPTIDE1,1:R1-13:R2$$$V2.0
SMILES: CC[C@H](C)[C@@H]1NC(=O)[C@@H]2CCCN2C(=O)[C@H]2CCCN2C(=O)[C@H](CCCNC(=N)N)NC(=O)[C@@H]2CSSC[C@H](NC1=O)C(=O)N[C@@H]([C@@H](C)O)C(=O)N[C@@H](CCCCN)C(=O)N[C@@H](CO)C(=O)N[C@@H](CC(=O)O)C(=O)N1CCC[C@H]1C(=O)N1CCC[C@H]1C(=O)N[C@@H](CCC(N)=O)C(=O)N2
B5: Example 42 (peptide)
peptide: cyclo([Nle]CTKSDPPICT[dP]P)
modifications: disulfide 2-10
B6: Example 22 (peptide)
peptide: ICTXSDPPICR
HELM: PEPTIDE1{I.C.T.[Nle].S.D.P.P.I.C.R.[dP].P}$PEPTIDE1,PEPTIDE1,2:R3-10:R3|PEPTIDE1,PEPTIDE1,1:R1-13:R2$$$V2.0
SMILES: CCCC[C@@H]1NC(=O)[C@H]([C@@H](C)O)NC(=O)[C@@H]2CSSC[C@H](NC(=O)[C@H]([C@@H](C)CC)NC(=O)[C@@H]3CCCN3C(=O)[C@@H]3CCCN3C(=O)[C@H](CC(=O)O)NC(=O)[C@H](CO)NC1=O)C(=O)N[C@@H](CCCNC(=N)N)C(=O)N1CCC[C@@H]1C(=O)N1CCC[C@H]1C(=O)N[C@@H]([C@@H](C)CC)C(=O)N2
B7: Example 37 (peptide)
peptide: XCTKSDPPICN
HELM: PEPTIDE1{[O=C([C@@H](N[*:1])C1CCCCC1)[*:2]].C.T.K.S.D.P.P.I.C.N.[dP].P}$PEPTIDE1,PEPTIDE1,2:R3-10:R3|PEPTIDE1,PEPTIDE1,1:R1-13:R2$$$V2.0
SMILES: CC[C@H](C)[C@@H]1NC(=O)[C@@H]2CCCN2C(=O)[C@@H]2CCCN2C(=O)[C@H](CC(=O)O)NC(=O)[C@H](CO)NC(=O)[C@H](CCCCN)NC(=O)[C@H]([C@@H](C)O)NC(=O)[C@@H]2CSSC[C@H](NC1=O)C(=O)N[C@@H](CC(N)=O)C(=O)N1CCC[C@@H]1C(=O)N1CCC[C@H]1C(=O)N[C@@H](C1CCCCC1)C(=O)N2
B8: Example 55 (peptide)
peptide: ICTKSDPPQCR
HELM: PEPTIDE1{I.C.T.K.S.D.P.P.Q.C.R.[dP].P}$PEPTIDE1,PEPTIDE1,2:R3-10:R3|PEPTIDE1,PEPTIDE1,1:R1-13:R2$$$V2.0
SMILES: CC[C@H](C)[C@@H]1NC(=O)[C@@H]2CCCN2C(=O)[C@H]2CCCN2C(=O)[C@H](CCCNC(=N)N)NC(=O)[C@@H]2CSSC[C@H](NC1=O)C(=O)N[C@@H]([C@@H](C)O)C(=O)N[C@@H](CCCCN)C(=O)N[C@@H](CO)C(=O)N[C@@H](CC(=O)O)C(=O)N1CCC[C@H]1C(=O)N1CCC[C@H]1C(=O)N[C@@H](CCC(N)=O)C(=O)N2
B9: Example 36 (peptide)
peptide: XCTKSDPPICY
HELM: PEPTIDE1{[Cha].C.T.K.S.D.P.P.I.C.Y.[dP].P}$PEPTIDE1,PEPTIDE1,2:R3-10:R3|PEPTIDE1,PEPTIDE1,1:R1-13:R2$$$V2.0
SMILES: CC[C@H](C)[C@@H]1NC(=O)[C@@H]2CCCN2C(=O)[C@@H]2CCCN2C(=O)[C@H](CC(=O)O)NC(=O)[C@H](CO)NC(=O)[C@H](CCCCN)NC(=O)[C@H]([C@@H](C)O)NC(=O)[C@@H]2CSSC[C@H](NC1=O)C(=O)N[C@@H](Cc1ccc(O)cc1)C(=O)N1CCC[C@@H]1C(=O)N1CCC[C@H]1C(=O)N[C@@H](CC1CCCCC1)C(=O)N2
B10: Example 16 (peptide)
peptide: FCTKSDPPXCS
HELM: PEPTIDE1{F.C.T.K.S.D.P.P.[Cha].C.S.[dP].P}$PEPTIDE1,PEPTIDE1,2:R3-10:R3|PEPTIDE1,PEPTIDE1,1:R1-13:R2$$$V2.0
SMILES: C[C@@H](O)[C@@H]1NC(=O)[C@@H]2CSSC[C@H](NC(=O)[C@H](CC3CCCCC3)NC(=O)[C@@H]3CCCN3C(=O)[C@@H]3CCCN3C(=O)[C@H](CC(=O)O)NC(=O)[C@H](CO)NC(=O)[C@H](CCCCN)NC1=O)C(=O)N[C@@H](CO)C(=O)N1CCC[C@@H]1C(=O)N1CCC[C@H]1C(=O)N[C@@H](Cc1ccccc1)C(=O)N2

molecular target: T1, CathepsinG, from human neutrophils; experiment: cell-based or functional assay

Q: For B1, which IC50 is on record?
A: The IC50 was 66 nmol.

Q: How did the IC50 turn out when B2 was run?
A: The IC50 was 55 nmol.

Q: How did the IC50 turn out when B3 was run?
A: Its IC50 is 47 nmol.

Q: Which IC50 does the source give for B4 here?
A: Its IC50 is 55 nmol.

Q: How did the IC50 turn out when B5 was run?
A: Its IC50 is 46 nmol.

Q: How did the IC50 turn out when B6 was run?
A: Its IC50 is 55 nmol.

Q: How did the IC50 turn out when B7 was run?
A: The IC50 was 35 nmol.

Q: How did the IC50 turn out when B8 was run?
A: The IC50 was 55 nmol.

Q: How did the IC50 turn out when B9 was run?
A: Its IC50 is 41 nmol.

Q: Which IC50 does the source give for B10 here?
A: The IC50 was 66 nmol.

molecular target: T2, Elastase from human neutrophils; experiment: cell-based or functional assay

Q: B1 was tested. Which IC50 did it give?
A: The IC50 was > 100000 nmol.

Q: For B2, which IC50 is on record?
A: Its IC50 is > 100000 nmol.

Q: B4 was tested. Which IC50 did it give?
A: The IC50 was > 100000 nmol.

Q: Which IC50 does the source give for B6 here?
A: Its IC50 is > 100000 nmol.

Q: With B8 as the binder, how does the IC50 read?
A: Its IC50 is > 100000 nmol.

Q: B10 was tested. Which IC50 did it give?
A: The IC50 was > 100000 nmol.

molecular target: Trypsin, Iodination grade, from human pancreas (human, UniProt P07477 24-247); experiment: cell-based or functional assay

Q: Which “% inhibition at 100 µM” value does the source give for B1 here?
A: The value was 90%.

Q: How did the “% inhibition at 100 µM” value turn out when B2 was run?
A: The value was 84%.

Q: For B4, which “% inhibition at 100 µM” value is on record?
A: The value was 90%.

Q: With B6 as the binder, how does the “% inhibition at 100 µM” value read?
A: Its value is 84%.

Q: With B8 as the binder, how does the “% inhibition at 100 µM” value read?
A: The value was 90%.

Q: How did the “% inhibition at 100 µM” value turn out when B10 was run?
A: Its value is 90%.

molecular target: Chymotrypsin, from human pancreas (human, UniProt P17538 19-263); experiment: cell-based or functional assay
Sequence (P17538 19-263): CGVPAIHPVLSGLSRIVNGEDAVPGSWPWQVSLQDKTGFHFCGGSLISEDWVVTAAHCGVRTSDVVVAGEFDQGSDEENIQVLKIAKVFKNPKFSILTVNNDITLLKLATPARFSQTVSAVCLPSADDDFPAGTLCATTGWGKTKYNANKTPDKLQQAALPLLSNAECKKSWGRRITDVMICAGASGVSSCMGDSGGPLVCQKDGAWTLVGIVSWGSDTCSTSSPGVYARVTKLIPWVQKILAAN

Q: With B2 as the binder, how does the “% inhibition at 100 µM” value read?
A: The value was 0%.

Q: How did the “% inhibition at 100 µM” value turn out when B4 was run?
A: The value was 16%.

Q: How did the “% inhibition at 100 µM” value turn out when B6 was run?
A: Its value is 0%.

Q: B8 was tested. Which “% inhibition at 100 µM” value did it give?
A: The value was 16%.

molecular target: T3, Chymase, from human skin; experiment: cell-based or functional assay

Q: For B1, which “% inhibition at 100 µM” value is on record?
A: Its value is 12.9%.

Q: B2 was tested. Which “% inhibition at 100 µM” value did it give?
A: Its value is 98.8%.

Q: How did the “% inhibition at 100 µM” value turn out when B4 was run?
A: The value was 27.6%.

Q: How did the “% inhibition at 100 µM” value turn out when B6 was run?
A: The value was 98.8%.

Q: How did the “% inhibition at 100 µM” value turn out when B8 was run?
A: Its value is 27.6%.

Q: B10 was tested. Which “% inhibition at 100 µM” value did it give?
A: Its value is 12.9%.

molecular target: Thrombin, from Human Plasma, high activity (human, UniProt P00734 328-622); experiment: cell-based or functional assay

Q: With B4 as the binder, how does the “% inhibition at 100 µM” value read?
A: Its value is 0%.

molecular target: Urokinase from human urine (human, UniProt P00749 21-431, limits assumed); experiment: cell-based or functional assay

Q: B1 was tested. Which “% inhibition at 100 µM” value did it give?
A: Its value is 3.2%.

Q: With B2 as the binder, how does the “% inhibition at 100 µM” value read?
A: The value was 5.7%.

Q: B3 was tested. Which “% inhibition at 100 µM” value did it give?
A: Its value is 1%.

Q: B5 was tested. Which “% inhibition at 100 µM” value did it give?
A: Its value is 7%.

Q: How did the “% inhibition at 100 µM” value turn out when B6 was run?
A: The value was 5.7%.

Q: Which “% inhibition at 100 µM” value does the source give for B7 here?
A: The value was 5%.

Q: B9 was tested. Which “% inhibition at 100 µM” value did it give?
A: The value was 0%.

Q: With B10 as the binder, how does the “% inhibition at 100 µM” value read?
A: Its value is 3.2%.

molecular target: Tryptase, from human lung (human, UniProt Q15661 31-275, limits assumed); experiment: cell-based or functional assay
Sequence (Q15661 31-275 limits assumed): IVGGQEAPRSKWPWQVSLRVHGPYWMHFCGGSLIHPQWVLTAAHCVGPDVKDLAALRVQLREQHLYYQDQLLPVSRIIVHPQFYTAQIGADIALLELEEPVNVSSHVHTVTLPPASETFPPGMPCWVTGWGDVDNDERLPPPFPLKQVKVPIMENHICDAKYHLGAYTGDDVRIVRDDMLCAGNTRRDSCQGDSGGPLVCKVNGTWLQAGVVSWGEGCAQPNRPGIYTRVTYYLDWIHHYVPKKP

Q: B2 was tested. Which “% inhibition at 100 µM” value did it give?
A: Its value is 3.8%.

Q: For B3, which “% inhibition at 100 µM” value is on record?
A: The value was 57%.

Q: B4 was tested. Which “% inhibition at 100 µM” value did it give?
A: Its value is 90.4%.

Q: With B5 as the binder, how does the “% inhibition at 100 µM” value read?
A: The value was 0%.

Q: B6 was tested. Which “% inhibition at 100 µM” value did it give?
A: Its value is 3.8%.

Q: How did the “% inhibition at 100 µM” value turn out when B7 was run?
A: The value was 56%.

Q: How did the “% inhibition at 100 µM” value turn out when B8 was run?
A: The value was 90.4%.

Q: How did the “% inhibition at 100 µM” value turn out when B9 was run?
A: The value was 73.3%.
